Data as given in the supplement of paper PMC10724198.
± gives the standard deviation of the averaged measurements.

Each sequence was assayed on Saccharomyces cerevisiae (assay: protein stability index of tFT-peptide fusion (C-terminal peptide) (PSI (0-1 scale)); higher = more stable (slower turnover)). Conditions: genetic background: wild type; temperature: 30 C.
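Note: PSI is a weighted mean of sequencing reads over stability bins, variants kept only with over 10 reads, mCherry proximal and sfGFP distal, peptide attached via GGGS linker.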

Sequence	protein stability index
LPSLPPRTSPPS	0.761 ± 0.027
LPSLRFLFPLVP	0.671 ± 0.036
LPSLSPPPSLPL	0.763 ± 0.042
LPSPLPPPAWTP	0.735 ± 0.029
LPSPLPPPPPAH	0.707 ± 0.0082
LPSPPPPRSLLP	0.6657 ± 0.0016
LPSPPPRPPHHR	0.672 ± 0.025
LPSPTTPRSPPP	0.729 ± 0.1
LPSPYPMPPPLP	0.736 ± 0.018
LPSSLFLCSLFC	0.655 ± 0.026
LPVLPPLSPSPF	0.665 ± 0.011
LPVPLAAFTTLH	0.711 ± 0.084
LPVRLPVSGSSS	0.8296 ± 0.0057
LQAALVFPRSSL	0.7225 ± 0.00052
LQPLPPYHSIQL	0.703 ± 0.012
LQRPDHPTPTPP	0.712 ± 0.017
LQSLRSEVIHSL	0.651 ± 0.095
LQTLDVFTTMKL	0.58 ± 0.045
LRAWWTPRRGRW	0.769 ± 0.052
LRCLFAWVCECG	0.635 ± 0.083
LRCLLAHIAGRG	0.67065 ± 0.00044
LRCSKRNKSMGQ	0.648 ± 0.048
LRECRSWGGAAG	0.653 ± 0.029

Sequence	protein stability index
LRFRTNYFFSRV	0.665 ± 0.063
LRGFGLGLRFFF	0.65 ± 0.013
LRGGGKRREVMG	0.702 ± 0.099
LRGSCFSLWLVF	0.526 ± 0.031
LRGVGAGPEDVG	0.694 ± 0.017
LRHVARCARGGA	0.647 ± 0.095
LRKCVKAECKSQ	0.684 ± 0.037
LRLCSLSLPSLP	0.704 ± 0.026
LRLGRDLMGEGV	0.661 ± 0.072
LRLLLLVLPTCF	0.527 ± 0.02
LRPILLSWFRKS	0.61 ± 0.039
LRPLPPPAPCKF	0.774 ± 0.04
LRPLPSPPPSLH	0.603 ± 0.0066
LRPRRCWNQWDM	0.675 ± 0.048
LRQALGRSEEPQ	0.6728 ± 0.0065
LRRKTIEVSGLA	0.573 ± 0.026
LRRLSTGTLSIL	0.724 ± 0.057
LRRMQGTGCPLP	0.643 ± 0.035
LRSARPALLCTP	0.678 ± 0.037
LRSGSLVSLPPL	0.747 ± 0.1
LRTPNIYLSFSP	0.666 ± 0.1
LRTVSPPSASPP	0.689 ± 0.014
LRVVCVVGQRSL	0.554 ± 0.0094

Sequence	protein stability index
LSDSSDSTLGAI	0.667 ± 0.029
LSFGPISGTPFR	0.661 ± 0.048
LSGLFMAARIFI	0.627 ± 0.06
LSGNLLLSSLLQ	0.654 ± 0.049
LSGVRFDSVFEH	0.729 ± 0.016
LSISGSVHILKD	0.733 ± 0.024
LSLASTGVDSGG	0.743 ± 0.03
LSLHCIYQQIFR	0.822 ± 0.12
LSLPSLLLRLSL	0.644 ± 0.023
LSPCSDFSTFDA	0.771 ± 0.12
LSPLPRLQPASP	0.655 ± 0.071
LSPLTPAPLPPP	0.6675 ± 0.0058
LSPPPPRPTLQF	0.731 ± 0.0092
LSPSPTSHSRLL	0.589 ± 0.024
LSPSSSLTYLSF	0.724 ± 0.07
LSPVRRAPCPLG	0.6905 ± 0.0019
LSRLPPTLPRTP	0.699 ± 0.18
LSRPPASPPHPP	0.71468 ± 0.00055
LSRTPLPLPPPS	0.705 ± 0.019
LSSLLPFPPLPC	0.685 ± 0.082
LSSRSDVLTYFV	0.639 ± 0.022
LSTCHSPSLPAT	0.739 ± 0.049
LSTHAPPTRLRL	0.677 ± 0.016

Sequence	protein stability index
LSTPPLPPPPPP	0.689 ± 0.058
LSVAFFILRVPL	0.573 ± 0.071
LSVGLVPFRWRV	0.6584 ± 0.0017
LSVNAGWLQLCA	0.561 ± 0.018
LSVPVGIRPGRC	0.702 ± 0.018
LSWDVWWYFLSV	0.594 ± 0.0063
LTLPPRPPSPPS	0.675 ± 0.08
LTSATSSGPPHP	0.7232 ± 0.0029
LTVVNFFPLGSP	0.67 ± 0.064
LVDKGSADVLDD	0.632 ± 0.048
LVFLRDFFSLFS	0.71 ± 0.017
LVFSSVVISCDI	0.528 ± 0.0092
LVFVPTLFPPPG	0.662 ± 0.053
LVFYSSLPNFSR	0.6815 ± 0.0024
LVGRRGVVGIVP	0.63 ± 0.075
LVGWVCRERELG	0.718 ± 0.06
LVHHPCNTPRVP	0.749 ± 0.018
LVIKNVWHESTY	0.709 ± 0.054
LVKLGSTLSGVG	0.582 ± 0.026
LVLFSRCSPFFL	0.659 ± 0.024
LVLVASVGVGRV	0.556 ± 0.057
LVSEGKRLDVVF	0.581 ± 0.076
LVSGRRWMLGSG	0.6451 ± 0.0023

Sequence	protein stability index
LVSQLLALCLSV	0.5358 ± 0.00089
LVVALGFDDRAC	0.623 ± 0.027
LVVLGVRGGGGG	0.701 ± 0.047
LWDQFAVSCFGG	0.745 ± 0.016
LWGAGAGPEDVG	0.6983 ± 0.0028
LWGAIGHGNAGP	0.684 ± 0.029
LWGFVEAIGSVL	0.705 ± 0.18
LWGGGVGRVRGV	0.658 ± 0.022
LWGMSDQGGGFR	0.611 ± 0.083
LWLPSTSLIPLI	0.641 ± 0.018
LWRSRSCSGHSF	0.651 ± 0.053
LYDAALHTKIFR	0.634 ± 0.012
LYDCQHTFILSR	0.643 ± 0.047
LYHCFRCYYMPW	0.637 ± 0.033
LYIHFIRSYPTI	0.6354 ± 0.0036
LYIYSPFGLFAF	0.562 ± 0.0082
LYPRLAPPTPPS	0.686 ± 0.026
LYTTLCLRSPPH	0.671 ± 0.026
LYVIGGTDLVGG	0.72 ± 0.04
MCNPAYVTSGVI	0.6987 ± 0.0054
MCPRFCPPLRSF	0.686 ± 0.084
MCWFDVSEWGLG	0.754 ± 0.091
MFVRRTDRGGIV	0.7312 ± 0.0069

Sequence	protein stability index
MGCSARLPLLSS	0.7215 ± 0.0016
MGDGRRMDGVWG	0.6 ± 0.03
MGGGGGLGGGDG	0.613 ± 0.072
MGGYLFLHVGYV	0.614 ± 0.062
MGIKSCSSTCVT	0.857 ± 0.2
MGTRRVGRQGWG	0.708 ± 0.031
MINYGLARKKAR	0.733 ± 0.02
MKKIGNKLKKEK	0.657 ± 0.099
MKKKTTKTKIKK	0.7205 ± 0.0051
MLGGGGGVRVLG	0.706 ± 0.011
MLYFSGLQVTIL	0.622 ± 0.0075
MPTSYDGCDRGH	0.713 ± 0.011
MRCQFDGAVGVC	0.663 ± 0.074
MRKGKGGGPRRR	0.699 ± 0.023
MRPRTSKKPQLE	0.744 ± 0.044
MRRKKSGPEYQR	0.678 ± 0.059
MRSRWFAREFGK	0.659 ± 0.07
MSCLSDFPVCFL	0.726 ± 0.037
MSGVWLWVGGGG	0.73 ± 0.078
MSVRGGEGVVGE	0.614 ± 0.025
MSWLGLGLWSVF	0.808 ± 0.069
MVLTVIHFDCDI	0.596 ± 0.014
MVTGELVQLLLV	0.528 ± 0.0048

Sequence	protein stability index
MWVGLWSVGLCG	0.717 ± 0.011
MYAWPISPRPLL	0.738 ± 0.052
MYTNYLYDVAVE	0.597 ± 0.044
NARPSPRSHSLE	0.6921 ± 0.0065
NDGLKVLKETSP	0.675 ± 0.027
NDKPKKKYRKTR	0.64 ± 0.018
NEVDSRGWTTLA	0.59 ± 0.021
NFAIYPTLYKYD	0.667 ± 0.016
NFDNGAGLNRGG	0.6733 ± 0.0059
NFEVHRCGISLR	0.681 ± 0.0075
NGDRGQWGMNQR	0.708 ± 0.028
NGLLRPALVPNY	0.693 ± 0.012
NGLRILICNTTP	0.697 ± 0.03
NGPYKAGSIVLI	0.664 ± 0.027
NGRENVHEWQRG	0.711 ± 0.018
NGRTSRVMKDRK	0.6793 ± 0.0035
NGSLRVVSGGFC	0.63 ± 0.048
NGSPFFFNRLFT	0.702 ± 0.033
NGTGGGSSLAFG	0.644 ± 0.019
NGWGKWTKTVCQ	0.646 ± 0.02
NHIASQASRRGR	0.637 ± 0.069
NHPCPFSELPQL	0.758 ± 0.11
